Article PMC11649694, “ZBTB48 is a priming factor regulating B-cell-specific CIITA expression”

Target: T1, ZBTB48 ZnF10-11-C (Homo sapiens, UniProt P10074 548-620)
T1 sequence: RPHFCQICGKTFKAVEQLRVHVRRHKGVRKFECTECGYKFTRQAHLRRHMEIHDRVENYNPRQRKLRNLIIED
Assay: X-ray crystallography; ZnF11 contacts G10G11G12; R614 contacts G12 and C8T9 of other strand; Pull-down: 150 mM NaCl, 50 mM Tris-HCl pH 7.5, 5 mM MgCl2, 0.5% Igepal CA-630, 1 mM DTT, 20 ug salmon sperm DNA, 4 C 2 h; crystals: 0.2 M imidazole malate pH 8.5, 20% PEG 4K, 20 C
Conditions: protein: recombinant; tags: GST removed by TEV; 5' overhang 1 nt at both ends, 15 bp

B1: CIITA e.2 crystal duplex (dsDNA)
DNA 1: CACAAGTGAGGGATCA
DNA 2: GTGATCCCTCACTTGT
- binding result: binds
